Experimental data: PMC7733459, “A serine protease secreted from Bacillus subtilis cleaves human plasma transthyretin to generate an amyloidogenic fragment” (Communications Biology, 2020)

Biological target: the molecule itself
Experiment: dynamic light scattering + native gel or EMSA; fragment at 0.23 mg/ml in 10 mM phosphate buffer, pH 7.4, 25 °C, immediately after dissolving the lyophilisate; native PAGE 5–12% acrylamide

B1: hTTR(59–127) (domain or fragment)
chain: not shown
notes: transthyretin, human, C-terminal proteolytic fragment Thr59-Glu127 (7757.4 Da) from cleavage at the Leu58-Thr59 bond; also called Thr59-Glu127 peptide; source: cleavage of plasma-purified hTTR by B. subtilis subtilisin, purified by semi-preparative RP-HPLC, lyophilized
binding result: binds
